# Data: paper PMC7347537
# Molecular target: full-length IRG1 from Bacillus subtilis (immune-responsive gene 1, cis-aconitate decarboxylase) (Bacillus subtilis)
# Test: SEC-MALS; Superdex 200 10/300, 20 mM Tris-HCl (pH 8.0), 150 mM NaCl, 0.4 mL/min, room temperature; DAWN-treos MALS detector
substance,measurement,value
"full-length IRG1 from Bacillus subtilis (immune-responsive gene 1, cis-aconitate decarboxylase) (enzyme)",stoichiometry N,2
